Residue numbers refer to the chain shown, from its start.
T1: RSV F protein mutant pXCS774 (RSV A2, UniProt P03420 26-109)
T1 chain 1: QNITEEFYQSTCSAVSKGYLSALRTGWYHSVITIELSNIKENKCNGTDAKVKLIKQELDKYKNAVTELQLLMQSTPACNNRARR
T1 chain 2: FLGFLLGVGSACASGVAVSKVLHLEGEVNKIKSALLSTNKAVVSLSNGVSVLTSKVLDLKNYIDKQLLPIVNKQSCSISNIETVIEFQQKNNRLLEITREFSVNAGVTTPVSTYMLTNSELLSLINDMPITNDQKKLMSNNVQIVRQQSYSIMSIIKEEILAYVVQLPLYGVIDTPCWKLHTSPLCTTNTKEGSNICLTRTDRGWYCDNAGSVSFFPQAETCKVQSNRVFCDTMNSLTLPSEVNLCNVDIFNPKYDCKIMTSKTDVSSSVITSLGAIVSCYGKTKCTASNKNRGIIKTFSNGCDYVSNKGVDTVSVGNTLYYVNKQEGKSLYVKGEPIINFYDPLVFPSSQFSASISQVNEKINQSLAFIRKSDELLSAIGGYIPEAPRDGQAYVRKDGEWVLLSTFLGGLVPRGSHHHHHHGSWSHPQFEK

T2: RSV F protein mutant pXCS845 (RSV A2, UniProt P03420 26-109)
T2 chain 1: T1 chain 1
T2 chain 2: T1 chain 2 with I160V, Q351E, S353D

T3: RSV F protein mutant pXCS856 (RSV A2, UniProt P03420 26-109)
T3 chain 1: T1 chain 1 with S30C, C78T
T3 chain 2: T1 chain 2 with C12I, L52C, Q351E, S353D

T4: RSV F protein mutant pXCS881 (RSV A2, UniProt P03420 26-109)
T4 chain 1: T1 chain 1 with S30C, C78T
T4 chain 2: T1 chain 2 with L6C, C12I, L52C, N235C

B1: AM22 (antibody, V domains shown)
VH: QVQLVQSGAEVKKPGATVKVSCKISGHTLIKLSIHWVRQAPGKGLEWMGGYEGEVDEIFYAQKFQHRLTVIADTATDTVYMELGRLTSDDTAVYFCGTLGVTVTEAGLGIDDYWGQGTLVTVSS
VL: EIVLTQSPGTLSLSPGERATLSCRASQIVSRNHLAWYQQKPGQAPRLLIFGASSRATGIPVRFSGSGSGTDFTLTINGLAPEDFAVYYCLSSDSSIFTFGPGTKVDFK
B2: MPE8 (antibody, V domains shown)
VH: EVQLVESGGGLVKPGGSLRLSCAASGFTFSSYSMNWVRQAPGKGLEWVSSISASSSYSDYADSAKGRFTISRDNAKTSLFLQMNSLRAEDTAIYFCARARATGYSSITPYFDIWGQGTLVTVSS
VL: QSVVTQTPSVSGAPGQRVTISCTGSSSNIGAGYDVHWYQQLPGTAPKLLIYDNNNRPSGVPDRFSASKSGTSASLAITGLQAEDEADYYCQSYDRNLSGVFGTGTKVTVL
notes: also called MPEG

Tests used:
Assay in all cases: BLI (Octet), F on anti-HIS tip, 20 nM mAb
[1] = molecular target: T1, RSV F protein mutant pXCS774
[2] = molecular target: T2, RSV F protein mutant pXCS845
[3] = molecular target: RSV F protein mutant pXCS847 (RSV A2, UniProt P03420 26-109)
[4] = molecular target: RSV F protein mutant pXCS853 (RSV A2, UniProt P03420 26-109)
[5] = molecular target: RSV F protein mutant pXCS854 (RSV A2, UniProt P03420 26-109)
[6] = molecular target: T3, RSV F protein mutant pXCS856
[7] = molecular target: T4, RSV F protein mutant pXCS881
[8] = molecular target: RSV F protein mutant pXCS885 (RSV A2, UniProt P03420 26-109)
[9] = molecular target: RSV F protein mutant pXCS891 (RSV A2, UniProt P03420 26-109)

Binder | Response (nm shift) [1] | Response (nm shift) [2] | Response (nm shift) [3] | Response (nm shift) [4] | Response (nm shift) [5] | Response (nm shift) [6] | Response (nm shift) [7] | Response (nm shift) [8] | Response (nm shift) [9]
B1 | 0.34 nm | 0.314 nm | 0.484 nm | 0.484 nm | 0.453 nm | 0.568 nm | 0.178 nm | 0.105 nm | 0.461 nm
B2 | 0.795 nm | 0.699 nm | 0.871 nm | 0.905 nm | 0.886 nm | 1.06 nm | 0.763 nm | 0.408 nm | 0.92 nm
